Source: patent US20200231671A1 (E R SQUIBB AND SONS L L C, published 2020)
Where no end group is shown, it is not given here.

T1: rhesus monkey LAG-3, clone pa23-5 (cell surface, CHO) (rhesus monkey, UniProt P18627 24-525 (human entry))
T1 construct: also called CHO-rhesus LAG3
T1 chain: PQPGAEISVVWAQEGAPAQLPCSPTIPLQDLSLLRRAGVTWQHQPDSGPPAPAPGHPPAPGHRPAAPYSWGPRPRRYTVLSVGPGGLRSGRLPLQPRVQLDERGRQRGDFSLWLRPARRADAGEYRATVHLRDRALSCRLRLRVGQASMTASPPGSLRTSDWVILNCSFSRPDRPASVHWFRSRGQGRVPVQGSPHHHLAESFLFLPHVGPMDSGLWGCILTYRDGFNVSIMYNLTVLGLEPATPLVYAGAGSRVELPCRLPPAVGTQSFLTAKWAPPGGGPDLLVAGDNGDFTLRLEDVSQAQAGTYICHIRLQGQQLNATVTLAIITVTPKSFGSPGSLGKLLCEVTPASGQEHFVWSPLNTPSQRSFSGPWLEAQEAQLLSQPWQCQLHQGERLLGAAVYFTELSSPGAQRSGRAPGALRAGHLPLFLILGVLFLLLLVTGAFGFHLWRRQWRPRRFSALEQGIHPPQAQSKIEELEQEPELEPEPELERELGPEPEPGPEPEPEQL

T2: LAG-3 extra loop scan peptide PAAAPGHPLAPG (human, also: conjugated to biotin, site not given here)
T2 construct: 12-mer overlapping scan peptide of the extra loop
T2 peptide: PAAAPGHPLAPG

T3: LAG-3 extra loop scan peptide AAPGHPLAPGPH (human, also: conjugated to biotin, site not given here)
T3 construct: 12-mer overlapping scan peptide of the extra loop
T3 peptide: AAPGHPLAPGPH

T4: LAG-3 extra loop scan peptide GPPAAAPGHPLA (human, also: conjugated to biotin, site not given here)
T4 construct: 12-mer overlapping scan peptide of the extra loop
T4 peptide: GPPAAAPGHPLA

T5: LAG-3 extra loop scan peptide PGHPLAPGPHPA (human, also: conjugated to biotin)
T5 construct: 12-mer overlapping scan peptide of the extra loop
T5 peptide: PGHPLAPGPHPA

T6: LAG-3 extra loop scan peptide PHPAAPSSWGPR (human, also: conjugated to biotin)
T6 construct: 12-mer overlapping scan peptide of the extra loop
T6 peptide: PHPAAPSSWGPR

T7: LAG-3 extra loop scan peptide PGPHPAAPSSWG (human, also: conjugated to biotin)
T7 construct: 12-mer overlapping scan peptide of the extra loop
T7 peptide: PGPHPAAPSSWG

T8: LAG-3 extra loop scan peptide HPLAPGPHPAAP (human, also: conjugated to biotin, site not given here)
T8 construct: 12-mer overlapping scan peptide of the extra loop
T8 peptide: HPLAPGPHPAAP

T9: LAG-3 extra loop scan peptide APSSWGPRPRRY (human, also: conjugated to biotin, site not given here)
T9 construct: 12-mer overlapping scan peptide of the extra loop
T9 peptide: APSSWGPRPRRY

T10: LAG-3 extra loop scan peptide PAAPSSWGPRPR (human, also: conjugated to biotin)
T10 construct: 12-mer overlapping scan peptide of the extra loop
T10 peptide: PAAPSSWGPRPR

T11: LAG-3 extra loop scan peptide LAPGPHPAAPSS (human, also: conjugated to biotin, site not given here)
T11 construct: 12-mer overlapping scan peptide of the extra loop
T11 peptide: LAPGPHPAAPSS


Tests used:
[1] = molecular target: T1, rhesus monkey LAG-3, clone pa23-5 (cell …); test: flow cytometry, CHO cells expressing rhesus LAG-3
Excerpt: The cDNA of clone pa23-5 was inserted into an expression construct, which was transfected into CHO-S suspension cells by nucleofection (Amaxa). Rhesus LAG-3 expression by sorted, selection drug-resistant clones was verified by FACS analysis. This clonal CHO cell line over-expressing rhesus LAG-3 was used in similar FACS assays to those described above to measure antibody cross reactivity to the monkey protein. Briefly, the 25F7, 8B7 and 26H10 monoclonal antibodies were serially diluted with cold 1×PFAE buffer (1×PBS+2% FBS, 0.02% sodium azide, 2 mM Na EDTA). For the binding reaction, 50 μl of diluted antibody solution was added to a 50 μl cell suspension containing 2×10⁵ cells and the mixture was incubated on ice for 30 minutes. The cells were processed by the same protocol described above. The analysis of antibody binding was conducted as described above.

[2] = molecular target: T2, LAG-3 extra loop scan peptide …; test: peptide scan ELISA
Description: (§1) In the LAG-3 protein, the immunoglobulin-like first domain of the extracellular region contains an exposed “extra loop” having the amino acid sequence: […] (SEQ ID NO: 79). To examine the binding of 25E3, 25F7, 8B7 and 26H10 to this region of LAG-3, and map the epitope bound by each antibody, a peptide scan experiment was performed across this region. A series of 10 overlapping peptides that scanned across the full length of the extra loop sequence were prepared and conjugated to biotin. For ELISA analysis, microtiter plates pre-coated with streptavidin (Sigma-Aldrich, Cat # M5432) were used to capture the biotinylated loop peptide-conjugates applied in a 100 μl volume at a concentration of 2 μg/mL and incubated 18 hours at 4° C., after which the plates were washed 3 times and blocked at room temperature for 1 hour with blocking buffer (1×PBS+10% FBS). Next, human anti-LAG-3 antibodies serially diluted 3-fold in blocking buffer from 10 μg/mL were applied and the plates were incubated at room temperature for 2 hours and then washed three times. To detect bound human antibody a HRP-conjugated goat anti-human kappa light chain antibody (Bethyl Laboratories, Cat # A80-115P) was diluted to 1 μg/mL in blocking buffer and applied to assay wells for 1 hour followed by three washes and application of TMB substrate (eBioscience, Cat #00-4201-56). Optical density readings at 650 nm wavelength were made on a Spectramax 340PC spectrophotometer ([…].).

[3] = molecular target: T3, LAG-3 extra loop scan peptide …; test: peptide scan ELISA
Description: as §1

[4] = molecular target: T4, LAG-3 extra loop scan peptide …; test: peptide scan ELISA
Description: as §1

[5] = molecular target: T5, LAG-3 extra loop scan peptide …; test: peptide scan ELISA
Description: as §1

[6] = molecular target: T6, LAG-3 extra loop scan peptide …; test: peptide scan ELISA
Description: as §1

[7] = molecular target: T7, LAG-3 extra loop scan peptide …; test: peptide scan ELISA
Description: as §1

[8] = molecular target: T8, LAG-3 extra loop scan peptide …; test: peptide scan ELISA
Description: as §1

[9] = molecular target: T9, LAG-3 extra loop scan peptide …; test: peptide scan ELISA
Description: as §1

[10] = molecular target: T10, LAG-3 extra loop scan peptide …; test: peptide scan ELISA
Description: as §1

[11] = molecular target: T11, LAG-3 extra loop scan peptide …; test: peptide scan ELISA
Description: as §1

| EC50 [1] [nM] | binding result [2] | binding result [3] | binding result [4] | binding result [5] | binding result [6] | binding result [7] | binding result [8] | binding result [9] | binding result [10] | binding result [11] | Binder |
| --- | --- | --- | --- | --- | --- | --- | --- | --- | --- | --- | --- |
| 4.68 | no binding (tested: 10 µg/mL) | no binding (tested: 10 µg/mL) | no binding (tested: 10 µg/mL) | no binding (tested: 10 µg/mL) | no binding (tested: 10 µg/mL) | no binding (tested: 10 µg/mL) | no binding (tested: 10 µg/mL) | no binding (tested: 10 µg/mL) | no binding (tested: 10 µg/mL) | no binding (tested: 10 µg/mL) | 26H10 human monoclonal antibody (antibody, IgG1, V domains shown, also called 26H10-FITC) VH: QVQLVESGGGVVQPGRSLRLSCAASGFTFSSYGMHWVRQAPGKGLEWVAVIWYDGSNKYYADSVKGRFTISRDNSKNTLYLQMNSLRAEDTAVYYCAREWAVASWDYGMDVWGQGTTVTVSS VL: not shown |
| – | binds | binds | – | binds | – | – | – | – | – | – | 25E3 human monoclonal antibody (antibody, IgG1, V domains shown) VH: EVQLVESGGGVVRPGGSLRLSCAASGFTFDDYGMSWVRQAPGKGLEWVSGINWNGGSTYYADSVKGRFTISGDNAKNSLYLQMNSLRAEDTALYYCTTGGYWGQGTLVTVSS VL: AIQLTQSPSSLSASVGDRVTITCRASQGIRSALAWYQQKPGKAPKLLIYDASSLESGVPSRFSGSGSGTDFTLTISSLQPEDFATYYCQQFNSYPYTFGQGTKLEIK |

Second part, the binder before the results:

| Binder | EC50 [1] [nM] | binding result [2] | binding result [3] | binding result [4] | binding result [5] | binding result [6] | binding result [7] | binding result [8] | binding result [9] | binding result [10] | binding result [11] |
| --- | --- | --- | --- | --- | --- | --- | --- | --- | --- | --- | --- |
| 25F7 human monoclonal antibody (antibody, IgG1, V domains shown, also called 25F7-FITC (IgG1 version)) VH: QVQLQQWGAGLLKPSETLSLTCAVYGGSFSDYYWNWIRQPPGKGLEWIGEINHNGNTNSNPSLKSRVTLSLDTSKNQFSLKLRSVTAADTAVYYCAFGYSDYEYNWFDPWGQGTLVTVSS VL: EIVLTQSPATLSLSPGERATLSCRASQSISSYLAWYQQKPGQAPRLLIYDASNRATGIPARFSGSGSGTDFTLTISSLEPEDFAVYYCQQRSNWPLTFGQGTNLEIK | 22.7 | – | – | – | – | binds | binds | – | – | binds | – |
| 8B7 human monoclonal antibody (antibody, IgG4, V domains shown, also called 8B7-FITC) VH: QVQLQQWGAGLLKPSETLSLTCAVYGGSFSGYYWSWIRQPPGKGLEWIGEINHRGNTNCNPSLKSRVTISGDTSKKQFALKLNSVTAADTAVYYCARGYDILTGYYEDSWGPGTLVTVSS VL: EIVLTQSPATLSLSPGERATLSCRASQSVSSYLAWYQQKPGQAPRLLIYNASNRATGIPARFSGSGSGTDFTLTISSLEPEDFAVYYCQQRSNWPLTFGGGTKVEIK | 10 | – | – | – | – | binds | binds | – | – | binds | – |
